According to the RNAGym collection of RNA variant scans (doi:10.1073/pnas.2313332121):

B1: TPR t1 (parent)
chain: GACCAAUCUGCCCUCAGAGCUCGAGAACAUCUUCGGAUGCAGAGGAGGCAGGCUUCGGUGGCGCGAUAGCGCCAACGUCCUCAACCUCCAAUGCAUCCCACCACAUGAUGAUGCCUGAAGAGCCUUGGUUUUUUG

Variants of: B1
Assay: polymerase ribozyme fitness, log enrichment relative to wild type (log ratio); higher = more active; in vitro selection for triplet polymerase activity
Procedure, shortened: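 Fitness is a logarithmic measure of how a genotype enriched relative to the wild type, with replicate averages weighted by inverse variance. The logarithm uses base 2, and enrichment came from Illumina sequencing of input and output libraries. Those libraries were PCR-built, transcribed mutants of each subunit of a heterodimeric triplet polymerase ribozyme, passed through one triplicate in vitro selection round that included frozen incubation at −7 °C, gel excision of extended constructs and streptavidin-bead capture. Genotypes were kept only if they had ≥10 input reads and ≥1 read per output.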

Variant | polymerase ribozyme fitness (log ratio)
GACCAAUCAGCCCUCAGAGCUCGAGAACAUCUUCGGAUGCAGAGGAGGCAGACUUCGGUGGCGCGAUAGCGCCAACGUCCUCAACCUCCAAUGCAUCCCACCAUAUGAUCAUGCCUGAAGAGCCUUGGUUUUUUG [U9A G52A C104U G110C] | -3.92
GACCAAUCAGCCCUCAGAGCUCGAGAACAUCUUCGGAUGCAGAGGAGGCAGGCUUCGAUGACGCGAUAGCGCCAACGUCCUCAAACUCCAAUGCAUCCCACCACAUGAUGAUACCUGAAGAGCCUUGGUUUUUUG [U9A G58A G61A C85A G113A] | -0.721
GACCAAUCAGCCCUCAGAGCUCGAGAACAUCUUCGGAUGCAGAGGAGGCAGGCUUCGGUGGCCCGAUAGCGCCAACGUCCUCAUCCUCCAAUGCAUCCCACCACAUGAUGAUGCCUGAAAAGCCUUGGUUUUUUG [U9A G63C A84U G120A] | 0.752
GACCAAUCAGCCCUCAGAGCUCGAGAACAUCUUCGGAUGCAGAGGAGGCAGGCUUCGGUGGCUCGAUAGCGCCAACGUCCUCAACCUCCAAUGCAUCCCACCACAUGAUGAUGCCUGAACAGCCUUGGUUUUUUG [U9A G63U G120C] | 0.699
GACCAAUCAGCCCUCAGAGCUCGAGAACAUCUUCGGAUGCAGAGGAGGCAGGCUUCGGUGGCGCGAUAUCGCCAACGUCCUCAACCUCCAAUGCAUCCCACCACAUGAUGAUGCCUGAAGAGCCUUGGUUUUUUG [U9A G69U] | 0.755
GACCAAUCAGCCCUCAGAGCUCGAGAACAUCUUCGGAUGCAGAGGAGGCAGGCUUCGGUGGCGCGAUAGCACAAACGUCCUCAAACUCCAAUGCAUCCCACCACAUGAUGAUGCCAGAAGAGCCUUGGUUUUUUG [U9A G71A C73A C85A U116A] | -3.81
GACCAAUCAGCCCUCAGAGCUCGAGAACAUCUUCGGAUGCAGAGGAGGCAGGCUUCGGUGGCGCGAUAGCACCAACGUCCUCAAACUCCAAUACAUCCCACAACAUGAUGAUGCCUGAAGAGCCUUGGUUUUUUG [U9A G71A C85A G93A C102A] | -3.84
GACCAAUCAGCCCUCAGAGCUCGAGAACAUCUUCGGAUGCAGAGGAGGCAGGCUUCGGUGGCGCGAUAGCGCCAACGUCCUCAACCUCCAAUGCAUCCCACCACAUGAUCAUGCCUGAAGAGCCUUGGUAUUUUG [U9A G110C U130A] | -4.06
GACCAAUCAGCCCUCAGAGCUCGAGAACAUCUUCGGAUGCAGAGGAGGCAGGCUUCGGUGGCGCGAUAGCGCCAACGUCCUCAACCUCCAAUGCAUCCCACCACAUGAUGAUGCCUGAACAGCCUUGGUUUUUUG [U9A G120C] | 1.21
GACCAAUCAGCCCUCAGAGCUCGAGAACACCUUCGGAUGCAGAAGAGGCAGGCUUCUGUAGCGCGAUAGCGCCAACGUCCUCAACCUCCAAUGCAUCCCACCACAUGAUGAGGCCUGAAGAGCCAUGGUUUUUUG [U9A U30C G44A G57U G60A U112G U125A] | -5.02
GACCAAUCAGCCCUCAGAGCUCGAGAACAUCAUCGGAUGCAGAGGAGGCAGGCUUCGGUGGUGCGAUAGCGCCAACGUCCUCAACCUCCAAUGCAUCCCACCACAUGAUGAUGACUGAAGAGCCUUGGUUUUUUG [U9A U32A C62U C114A] | -4.44
GACCAAUCAGCCCUCAGAGCUCGAGAACAUCUUCGGAUGCAGAGGAGGCAGGCUGGGGUGGCGCGAUAGCGCCAACGUCCUCAACCUCCAAUGCAUCCCACCACAUGAUGAUGCCUGAAGAGCCUUGGUUUUUUG [U9A U55G C56G] | -0.896
GACCAAUCAGCCCUCAGAGCUCGAGAACAUCUUCGGAUGCAGAGGAGGCAGGCUGCGGUGGCGCGAUAGCGCCAACGUCCUCAACCUCCAAUGCAUCCUACCACAUGAUGAUGCCUGAAGAGCCUUGGUUUUUUG [U9A U55G C99U] | -2.44
GACCAAUCAGCCCUCAGAGCUCGAGAACAUCUUCGGAUGCAGAGGAGGCAGGCUUCGGUGGCGCGAUAGCGCCAACGACCUCAACCUCCAAUGCAUCCCACCACAUGAUGAUGCCUGAAGAGCCUUGGUUUUUUG [U9A U78A] | -0.206
GACCAAUCAGCCCUCAGAGCUCGAGAACAUCUUCGGAUGCAGAGGAGGCAGGCUUCGGUGGCGCGAUAGCGCCAACGUCCUCAACCACCAAUGCAUCCCACCACAUGAUGAUGCCUGAAGAGCCUUGGUUUUUUG [U9A U87A] | 1.16
GACCAAUCCGCCCUCAGAGCUCGAGGACAUCUUAGGAUACAGAGGAGGCAGGCUUCGGUGGCGCGAUAGCGCCAACGUCCUCAACCUCCAAUGCAUACCACCACAUGAUGAUGCAUGAAGGGCCUUGGUUUUUUG [U9C A26G C34A G39A C97A C115A A121G] | -1.6
GACCAAUCCGCCCUCAGAGCUCGAGAGCAUCUUCGGAUGCAGAGGAGGCAGGCUUAGGUGGCGCGAUAGCGCCAACGUCCUCAACCUCCAAAGCAUCCCACCACAUGAUGAUGCCUGAAGAGCCUUGGUUUUUUG [U9C A27G C56A U92A] | -3.57
GACCAAUCCGCCCUCAGAGCUCGAGAACGUCUUCGGAUGCAGAGGAGGCAGGCUUCGAUGGCGCGAUAGCGCCAACGUCCUCAACCUCCUAUGCAUCCCACCACAUGAUAAUGCCUGAAGAGCCUUGGUUUUUUG [U9C A29G G58A A90U G110A] | -4.22
GACCAAUCCGCCCUCAGAGCUCGAGAACAUCUUCGGCUGCAGAGGAGGCAGGCUUCGGUGGCGCGAUAGCGCCAACGUCCUCAACCUCCAAUGUAUCCCACCACAUGAUAAUGCCUGAAGAGCCUUGGUUUUUUG [U9C A37C C94U G110A] | -1.17
GACCAAUCCGCCCUCAGAGCUCGAGAACAUCUUCGGUUGCAGAGGAGGCAGGCUUCGGUGGCGCGCUAGCGCCAACGUCCUCAACCUCCAAUGCAUCCCACCACAUGAUGAUGCCUGAAGAGCCUUGGUUUUUUG [U9C A37U A66C] | -1.35
GACCAAUCCGCCCUCAGAGCUCGAGAACAUCUUCGGAUGCCGAGGAGGCAGACUUCGGUGGCGCGAUAGCGCCAACGUCCUCAACCUCCAAUGCAUCUCACCACAUGAUGAUGCCUGAAGAGCCUUGGUGUUUUG [U9C A41C G52A C98U U130G] | -2.71
